Experimental data from patent US20220411487A1.

Molecular target: catalytically inactive full length human TMPRSS6 on HEK293 cells (HEK293/hTMPRSS6 (S762A)) (human) (UniProt Q8IU80)
Assay: flow cytometry, HEK293 cells expressing target

Sequence of catalytically inactive full length human TMPRSS6 on HEK293 cells (HEK293/hTMPRSS6 (S762A)) (human) (Q8IU80 10-811 S762A): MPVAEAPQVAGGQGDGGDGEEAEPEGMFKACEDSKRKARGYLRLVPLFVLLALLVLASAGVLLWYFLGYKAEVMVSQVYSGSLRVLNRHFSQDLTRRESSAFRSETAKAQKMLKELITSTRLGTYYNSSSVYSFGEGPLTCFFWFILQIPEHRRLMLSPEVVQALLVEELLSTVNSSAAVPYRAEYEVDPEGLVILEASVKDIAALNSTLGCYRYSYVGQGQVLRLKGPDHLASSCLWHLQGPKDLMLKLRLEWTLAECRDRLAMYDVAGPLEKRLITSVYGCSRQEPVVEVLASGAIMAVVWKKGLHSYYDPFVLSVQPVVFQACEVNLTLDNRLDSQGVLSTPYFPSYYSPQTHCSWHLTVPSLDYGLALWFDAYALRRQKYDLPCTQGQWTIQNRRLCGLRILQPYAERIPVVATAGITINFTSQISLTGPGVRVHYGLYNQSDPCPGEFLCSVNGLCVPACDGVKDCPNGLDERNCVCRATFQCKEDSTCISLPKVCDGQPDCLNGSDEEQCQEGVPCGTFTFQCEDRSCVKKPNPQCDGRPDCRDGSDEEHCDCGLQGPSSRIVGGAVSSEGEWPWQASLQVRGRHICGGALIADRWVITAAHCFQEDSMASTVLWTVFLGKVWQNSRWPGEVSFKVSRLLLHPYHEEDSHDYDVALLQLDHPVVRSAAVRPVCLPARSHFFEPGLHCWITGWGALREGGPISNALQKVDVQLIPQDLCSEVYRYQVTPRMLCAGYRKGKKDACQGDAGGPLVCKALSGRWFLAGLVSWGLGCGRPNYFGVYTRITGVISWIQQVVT

B1: REGN8023 (antibody, human IgG4 S228P, kappa, V domains shown)
VH: EVQLVESGGGLVKPGGSLRISCAASGFIFVDYAMHWVRQAPGKGLEWVSGISWNSGSIGYADSVKGRFTISRDNAKKSLYLQMSGLRPEDTALYYCVKSGFYYVRSYFDNWGQGTLVTVSS
VL: DIVMTQSPLSLPVTPGEPASISCRSSQSLLDSDDGNTYLDWYLRKPGQSPQLLIYTLSYRASGVPDRFSGSGSGTDFTLKISRVEADDVGVYYCMQRIEFPLTFGGGTKVEIKR
Binder B1 has an EC50 of 2 nM and a Max. Fold Binding (fold over unstained control) of 300.
